Measurements reported in PMC7826273.
Substitutions are numbered along the chain they refer to. Read-outs that look alike come from different tables or passages of the source.

Columns and labels:
FmhB [1] = biological target: T1, FmhB (Staphylococcus aureus, UniProt Q2FVZ4 1-421); assay: competition
T1 sequence: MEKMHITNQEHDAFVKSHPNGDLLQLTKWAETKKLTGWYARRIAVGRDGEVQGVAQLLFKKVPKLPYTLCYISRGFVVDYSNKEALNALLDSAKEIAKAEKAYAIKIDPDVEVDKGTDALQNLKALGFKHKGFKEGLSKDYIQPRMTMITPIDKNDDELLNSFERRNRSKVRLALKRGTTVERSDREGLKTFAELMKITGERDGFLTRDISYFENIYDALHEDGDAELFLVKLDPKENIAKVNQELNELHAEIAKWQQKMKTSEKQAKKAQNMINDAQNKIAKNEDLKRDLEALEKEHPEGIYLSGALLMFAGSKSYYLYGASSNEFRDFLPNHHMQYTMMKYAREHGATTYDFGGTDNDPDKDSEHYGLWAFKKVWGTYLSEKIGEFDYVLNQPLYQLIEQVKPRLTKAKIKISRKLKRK

FmhB [2] = biological target: T1, FmhB; assay: competition; remark: listed apart in the source
FmhB [3] = biological target: T1, FmhB; assay: competition; remark: listed apart in the source
FmhB [4] = biological target: T1, FmhB; assay: competition; remark: listed apart in the source
EF-Tu (GTP form) = EF-Tu (GTP form) (UniProt P99152 1-394); assay: competition
FmhB [5] = biological target: T1, FmhB; assay: size-exclusion chromatography

Sequence of EF-Tu (GTP form) (P99152 whole entry): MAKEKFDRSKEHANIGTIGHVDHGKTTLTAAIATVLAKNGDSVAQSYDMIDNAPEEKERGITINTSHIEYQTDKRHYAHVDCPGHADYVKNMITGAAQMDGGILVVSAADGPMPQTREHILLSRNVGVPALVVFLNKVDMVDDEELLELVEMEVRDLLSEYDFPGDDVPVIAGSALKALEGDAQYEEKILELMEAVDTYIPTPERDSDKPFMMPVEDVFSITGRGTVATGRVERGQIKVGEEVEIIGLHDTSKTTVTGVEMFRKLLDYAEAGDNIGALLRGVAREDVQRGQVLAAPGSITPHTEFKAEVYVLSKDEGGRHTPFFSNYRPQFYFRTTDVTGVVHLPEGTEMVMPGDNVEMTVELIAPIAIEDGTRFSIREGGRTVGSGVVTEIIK

B1: P1_1 analogue (P1 with NP2 region 1) (structured_RNA)
RNA: GCAGAAGUAGUUCAACUUUUAGAAUACAACCUUGCCAAGGUUGGGGUGCGGGUUCGAAUCCCGUCUUCUGCUCCA
modifications: stable triazole-nonadiyne analogue (2' isomer presumed)
FmhB [1]
  binding signal: 2 ± 0.3 fold reduction in Ki vs P1 analogue

B2: NP2 stable Gly-tRNA analogue, 2' isomer (structured_RNA)
RNA: GCGGGAGUAGUUCAACUUUUAGAACACGUUCCUUCCCGGAACGAGGUAUAGGUGUAAAUCCUAUCUUCCGCUCCA
modifications: 2'-(1,4-triazole-alkyne; nonadiyne) on terminal A; penultimate C is dC (pdCpA ligation)
FmhB [2]
  Ki: 8.6 ± 2 nM

B3: NP2 stable Gly-tRNA analogue, 3' isomer (structured_RNA)
RNA: B2 RNA
modifications: 3'-(1,4-triazole-alkyne; nonadiyne) on terminal A; penultimate C is dC (pdCpA ligation)
FmhB [3]
  Ki: 110 ± 6 nM

B4: CHIM1 analogue (NP2 with P1 acceptor stem) (structured_RNA)
RNA: B2 RNA with G3A, G5A, U55C, C69U
modifications: 2'-triazole-nonadiyne on terminal A; penultimate C is dC
FmhB [4]
  Ki: 7.6 ± 0.7 nM

B5: CHIM4 analogue (P1 with NP2 anticodon stem-loop) (structured_RNA)
RNA: GCAGAAGUAGUUCAGCGGUAGAAUACGUUCCUUCCCGGAACGGGGUCGCGGGUUCGAAUCCCGUCUUCUGCUCCA
modifications: 2'-triazole-nonadiyne on terminal A; penultimate C is dC
FmhB [4]
  Ki: 220 ± 40 nM

B6: CHIM3 analogue (NP2 with P1 anticodon stem-loop) (structured_RNA)
RNA: GCGGGAGUAGUUCAACUUUUAGAACACAACCUUGCCAAGGUUGAGGUAUAGGUGUAAAUCCUAUCUUCCGCUCCA
modifications: 2'-triazole-nonadiyne on terminal A; penultimate C is dC
FmhB [4]
  Ki: 5.4 ± 0.3 nM

B7: CHIM5 analogue (NP2 with P1 anticodon stem-loop and acceptor stem) (structured_RNA)
RNA: B6 RNA with G3A, G5A, C69U
modifications: 2'-triazole-nonadiyne on terminal A; penultimate C is dC
FmhB [4]
  Ki: 19 ± 2 nM

B8: Gly-tRNAGly P1 (structured_RNA)
RNA: GCAGAAGUAGUUCAGCGGUAGAAUACAACCUUGCCAAGGUUGGGGUCGCGGGUUCGAAUCCCGUCUUCUGCUCCA
modifications: 3'-glycyl ester
EF-Tu (GTP form)
  binding signal: 14 ± 3 % residual FmhB activity at 4 uM EF-Tu

B9: P1 stable Gly-tRNA analogue, 2' isomer (structured_RNA)
RNA: B8 RNA
modifications: 2'-(1,4-triazole-alkyne; nonadiyne) on terminal A; penultimate C is dC (pdCpA ligation)
FmhB [3]
  Ki: 320 ± 10 nM

B10: tRNAGly P1 (GCC-1), unacylated (structured_RNA)
RNA: B8 RNA
FmhB [5]
  binding result: no binding

B11: CHIM2 analogue (P1 with NP2 acceptor stem) (structured_RNA)
RNA: B8 RNA with A3G, A5G, U69C
modifications: 2'-triazole-nonadiyne on terminal A; penultimate C is dC
FmhB [4]
  Ki: 1000 ± 160 nM
